Laboratory results from paper PMC7228753 (Science Advances, 2020).

What was measured:
endogenous IRF5 = endogenous IRF5 (Homo sapiens, UniProt Q13568); type: cell-based
IRF5 [1] = target: T1, IRF5 (Homo sapiens, UniProt Q13568); type: cell-based
IRF5 [2] = target: T1, IRF5; type: cell-based; remark: listed apart in the source
IRF5 [3] = target: T1, IRF5; type: cell-based; remark: listed apart in the source
[4] = target: wild-type (WT) IRF5, tagged with either His or biotin at the C terminus (human); experiment: FRET or BRET
[5] = target: IRF5 [change], tagged with either His or biotin (human); experiment: FRET or BRET

Row | Molecule | in-cell FRET signal with TRITC-IRF5 (endogenous IRF5) | inhibition of R848-induced IRF5 nuclear translocation in CD19+ B cells (IRF5 [1]) | effect on R848-induced IRF5 homodimerization (IRF5 [2]) | inhibition of R848-induced IRF5 nuclear translocation in CD14+ monocytes (IRF5 [3]) | Kd [4] | IC50 [5]
1 | Ac-IKVMWPILFIIKLVHSDKKI-NH2 [IRF5-CPP8] | minimal FRET signal | neither peptide provided IRF5-specific inhibition | Neither of these two peptides inhibited | neither peptide provided IRF5-specific inhibition |  | 
2 | wild-type (WT) IRF5, tagged with either His or biotin at the C terminus (natural protein) |  |  |  |  | 4.21 µM | 
3 | IRF5-CPP9: Negative control for IRF5-CPP5; lacks the IRF5-specific sequences (MANLGYWLLALFVTMWTDVGLCKKRPKP) | minimal FRET signal | neither peptide provided IRF5-specific inhibition | Neither of these two peptides inhibited | neither peptide provided IRF5-specific inhibition |  | 
4 | Ac-IRLQISNPYLKFIPLKRAIWLIK-NH2 [IRF5-CPP1] |  |  |  |  |  | > 75 µM
